Laboratory results published in IntAct's records for PubMed 25910212.

B1: Neutrophil cytosol factor 1 (Homo sapiens), P14598 (parent)
chain: MGDTFIRHIALLGFEKRFVPSQHYVYMFLVKWQDLSEKVVYRRFTEIYEFHKTLKEMFPIEAGAINPENRIIPHLPAPKWFDGQRAAENRQGTLTEYCSTLMSLPTKISRCPHLLDFFKVRPDDLKLPTDNQTKKPETYLMPKDGKSTATDITGPIILQTYRAIANYEKTSGSEMALSTGDVVEVVEKSESGWWFCQMKAKRGWIPASFLEPLDSPDETEDPEPNYAGEPYVAIKAYTAVEGDEVSLLEGEAVEVIHKLLDGWWVIRKDDVTGYFPSMYLQKSGQDVSQAQRQIKRGAPPRRSSIRNAHSIHQRSRKRLSQDAYRRNSVRFLQQRRRQARPGPQSPGSPLEEERQTQRSKPQPAVPPRPSADLILNRCSESTKRKLASAV
B2: Beta-crystallin A4 (Homo sapiens), P53673 (parent)
chain: MTLQCTKSAGPWKMVVWDEDGFQGRRHEFTAECPSVLELGFETVRSLKVLSGAWVGFEHAGFQGQQYILERGEYPSWDAWGGNTAYPAERLTSFRPAACANHRDSRLTIFEQENFLGKKGELSDDYPSLQAMGWEGNEVGSFHVHSGAWVCSQFPGYRGFQYVLECDHHSGDYKHFREWGSHAPTFQVQSIRRIQQ
partner: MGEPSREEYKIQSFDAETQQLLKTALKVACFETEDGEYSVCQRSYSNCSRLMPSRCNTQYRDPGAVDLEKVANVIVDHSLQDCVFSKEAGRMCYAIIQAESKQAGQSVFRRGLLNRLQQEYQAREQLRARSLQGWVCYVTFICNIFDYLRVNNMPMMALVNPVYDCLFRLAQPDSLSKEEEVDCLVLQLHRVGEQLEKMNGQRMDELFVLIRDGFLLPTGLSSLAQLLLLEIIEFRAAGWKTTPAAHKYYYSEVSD
B3: Transmembrane protein 43 (Homo sapiens), Q9BTV4 (parent)
chain: MAANYSSTSTRREHVKVKTSSQPGFLERLSETSGGMFVGLMAFLLSFYLIFTNEGRALKTATSLAEGLSLVVSPDSIHSVAPENEGRLVHIIGALRTSKLLSDPNYGVHLPAVKLRRHVEMYQWVETEESREYTEDGQVKKETRYSYNTEWRSEIINSKNFDREIGHKNPSAMAVESFMATAPFVQIGRFFLSSGLIDKVDNFKSLSLSKLEDPHVDIIRRGDFFYHSENPKYPEVGDLRVSFSYAGLSGDDPDLGPAHVVTVIARQRGDQLVPFSTKSGDTLLLLHHGDFSAEEVFHRELRSNSMKTWGLRAAGWMAMFMGLNLMTRILYTLVDWFPVFRDLVNIGLKAFAFCVATSLTLLTVAAGWLFYRPLWALLIAGLALVPILVARTRVPAKKLE
partner: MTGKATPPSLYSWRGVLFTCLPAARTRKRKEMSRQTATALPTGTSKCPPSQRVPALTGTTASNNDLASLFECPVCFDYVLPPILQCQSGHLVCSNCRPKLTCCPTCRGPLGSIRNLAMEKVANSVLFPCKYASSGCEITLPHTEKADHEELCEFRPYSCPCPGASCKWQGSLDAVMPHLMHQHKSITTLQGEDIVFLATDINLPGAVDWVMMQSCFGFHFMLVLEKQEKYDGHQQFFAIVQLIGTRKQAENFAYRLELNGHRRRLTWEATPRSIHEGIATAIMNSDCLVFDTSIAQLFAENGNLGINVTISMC
B4: Plakophilin-2 (Homo sapiens), Q99959-2 (parent)
chain: MAAPGAPAEYGYIRTVLGQQILGQLDSSSLALPSEAKLKLAGSSGRGGQTVKSLRIQEQVQQTLARKGRSSVGNGNLHRTSSVPEYVYNLHLVENDFVGGRSPVPKTYDMLKAGTTATYEGRWGRGTAQYSSQKSVEERSLRHPLRRLEISPDSSPERAHYTHSDYQYSQRSQAGHTLHHQESRRAALLVPPRYARSEIVGVSRAGTTSRQRHFDTYHRQYQHGSVSDTVFDSIPANPALLTYPRPGTSRSMGNLLEKENYLTAGLTVGQVRPLVPLQPVTQNRASRSSWHQSSFHSTRTLREAGPSVAVDSSGRRAHLTVGQAAAGGSGNLLTERSTFTDSQLGNADMEMTLERAVSMLEADHMLPSRISAAATFIQHECFQKSEARKRVNQLRGILKLLQLLKVQNEDVQRAVCGALRNLVFEDNDNKLEVAELNGVPRLLQVLKQTRDLETKKQITGLLWNLSSNDKLKNLMITEALLTLTENIIIPFSGWPEGDYPKANGLLDFDIFYNVTGCLRNMSSAGADGRKAMRRCDGLIDSLVHYVRGTIADYQPDDKATENCVCILHNLSYQLEAELPEKYSQNIYIQNRNIQTDNNKSIGCFGSRSRKVKEQYQDVPMPEEKSNPKGVEWLWHSIVIRMYLSLIAKSVRNYTQEASLGALQNLTAGSGPMPTSVAQTVVQKESGLQHTRKMLHVGDPSVKKTAISLLRNLSRNLSLQNEIAKETLPDLVSIIPDTVPSTDLLIETTASACYTLNNIIQNSYQNARDLLNTGGIQKIMAISAGDAYASNKASKAASVLLYSLWAHTELHHAYKKAQFKKTDFVNSRTAKAYHSLKD
B5: EF-hand domain-containing protein 1 (Homo sapiens), Q5JVL4 (parent)
chain: MVSNPVHGLPFLPGTSFKDSTKTAFHRSQTLSYRNGYAIVRRPTVGIGGDRLQFNQLSQAELDELASKAPVLTYGQPKQAPPADFIPAHVAFDKKVLKFDAYFQEDVPMSTEEQYRIRQVNIYYYLEDDSMSVIEPVVENSGILQGKLIKRQRLAKNDRGDHYHWKDLNRGINITIYGKTFRVVDCDQFTQVFLESQGIELNPPEKMALDPYTELRKQPLRKYVTPSDFDQLKQFLTFDKQVLRFYAIWDDTDSMYGECRTYIIHYYLMDDTVEIREVHERNDGRDPFPLLMNRQRVPKVLVENAKNFPQCVLEISDQEVLEWYTAKDFIVGKSLTILGRTFFIYDCDPFTRRYYKEKFGITDLPRIDVSKREPPPVKQELPPYNGFGLVEDSAQNCFALIPKAPKKDVIKMLVNDNKVLRYLAVLESPIPEDKDRRFVFSYFLATDMISIFEPPVRNSGIIGGKYLGRTKVVKPYSTVDNPVYYGPSDFFIGAVIEVFGHRFIILDTDEYVLKYMESNAAQYSPEALASIQNHVRKREAPAPEAESKQTEKDPGVQELEALIDTIQKQLKDHSCKDNIREAFQIYDKEASGYVDRDMFFKICESLNVPVDDSLVKELIRMCSHGEGKINYYNFVRAFSN
partner: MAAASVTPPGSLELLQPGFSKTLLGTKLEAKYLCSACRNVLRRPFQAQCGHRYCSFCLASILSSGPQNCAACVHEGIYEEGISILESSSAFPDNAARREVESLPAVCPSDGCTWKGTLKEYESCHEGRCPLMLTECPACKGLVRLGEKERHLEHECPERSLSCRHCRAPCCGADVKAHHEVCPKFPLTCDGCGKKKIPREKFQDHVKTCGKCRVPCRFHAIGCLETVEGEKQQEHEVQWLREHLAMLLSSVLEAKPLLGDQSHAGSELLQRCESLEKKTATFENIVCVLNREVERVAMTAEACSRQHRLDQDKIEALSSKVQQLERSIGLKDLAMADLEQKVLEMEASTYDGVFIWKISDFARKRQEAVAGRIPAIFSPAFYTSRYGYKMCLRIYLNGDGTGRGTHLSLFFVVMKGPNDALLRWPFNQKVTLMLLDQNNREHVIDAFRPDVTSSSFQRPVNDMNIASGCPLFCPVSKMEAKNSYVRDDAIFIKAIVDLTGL
B6: PiggyBac transposable element-derived protein 1 (Homo sapiens), Q96JS3 (parent)
chain: MYEALPGPAPENEDGLVKVKEEDPTWEQVCNSQEGSSHTQEICRLRFRHFCYQEAHGPQEALAQLRELCHQWLRPEMHTKEQIMELLVLEQFLTILPKELQPCVKTYPLESGEEAVTVLENLETGSGDTGQQASVYIQGQDMHPMVAEYQGVSLECQSLQLLPGITTLKCEPPQRPQGNPQEVSGPVPHGSAHLQEKNPRDKAVVPVFNPVRSQTLVKTEEETAQAVAAEKWSHLSLTRRNLCGNSAQETVMSLSPMTEEIVTKDRLFKAKQETSEEMEQSGEASGKPNRECAPQIPCSTPIATERTVAHLNTLKDRHPGDLWARMHISSLEYAAGDITRKGRKKDKARVSELLQGLSFSGDSDVEKDNEPEIQPAQKKLKVSCFPEKSWTKRDIKPNFPSWSALDSGLLNLKSEKLNPVELFELFFDDETFNLIVNETNNYASQKNVSLEVTVQEMRCVFGVLLLSGFMRHPRREMYWEVSDTDQNLVRDAIRRDRFELIFSNLHFADNGHLDQKDKFTKLRPLIKQMNKNFLLYAPLEEYYCFDKSMCECFDSDQFLNGKPIRIGYKIWCGTTTQGYLVWFEPYQEESTMKVDEDPDLGLGGNLVMNFADVLLERGQYPYHLCFDSFFTSVKLLSALKKKGVRATGTIRENRTEKCPLMNVEHMKKMKRGYFDFRIEENNEIILCRWYGDGIISLCSNAVGIEPVNEVSCCDADNEEIPQISQPSIVKVYDECKEGVAKMDQIISKYRVRIRSKKWYSILVSYMIDVAMNNAWQLHRACNPGASLDPLDFRRFVAHFYLEHNAHLSD
partner: B5 partner

Variants of: B1
Conditions: with hsp7c_human HSPA8, P11142
Chain of hsp7c_human HSPA8, P11142 (P11142 whole entry, looked up): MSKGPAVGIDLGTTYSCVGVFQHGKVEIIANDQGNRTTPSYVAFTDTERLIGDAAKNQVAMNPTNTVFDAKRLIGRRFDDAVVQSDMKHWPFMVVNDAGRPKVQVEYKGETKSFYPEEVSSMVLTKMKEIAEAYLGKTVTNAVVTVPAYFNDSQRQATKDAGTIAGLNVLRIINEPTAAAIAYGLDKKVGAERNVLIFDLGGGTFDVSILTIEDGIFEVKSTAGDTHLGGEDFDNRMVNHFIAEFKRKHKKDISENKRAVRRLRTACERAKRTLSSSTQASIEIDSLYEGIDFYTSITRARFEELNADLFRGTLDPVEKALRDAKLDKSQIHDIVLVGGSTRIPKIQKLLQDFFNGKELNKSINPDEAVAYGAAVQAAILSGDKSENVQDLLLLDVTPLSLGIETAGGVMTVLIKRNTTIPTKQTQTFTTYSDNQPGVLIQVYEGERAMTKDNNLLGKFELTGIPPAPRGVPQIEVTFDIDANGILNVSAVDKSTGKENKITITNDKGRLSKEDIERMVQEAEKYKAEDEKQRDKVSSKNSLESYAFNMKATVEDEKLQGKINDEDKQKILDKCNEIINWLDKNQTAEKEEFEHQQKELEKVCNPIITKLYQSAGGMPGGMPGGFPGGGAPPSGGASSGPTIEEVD

effect of a mutation on the interaction | Variant
with no effect | T53A

Variants of: B2
Conditions: with MIF4GD

effect of a mutation on the interaction | Variant
disrupting interaction strength | V36M
disrupting interaction strength | F94S
disrupting interaction strength | L69P

Variants of: B3
Conditions: with SIAH1, Q8IUQ4-2

effect of a mutation on the interaction | Variant
with no effect | S358L

Variants of: B4
Conditions: with MTUS2, Q5JR59-3
Chain of MTUS2, Q5JR59-3 (Q5JR59 other isoform, or with tags, fused parts or gaps): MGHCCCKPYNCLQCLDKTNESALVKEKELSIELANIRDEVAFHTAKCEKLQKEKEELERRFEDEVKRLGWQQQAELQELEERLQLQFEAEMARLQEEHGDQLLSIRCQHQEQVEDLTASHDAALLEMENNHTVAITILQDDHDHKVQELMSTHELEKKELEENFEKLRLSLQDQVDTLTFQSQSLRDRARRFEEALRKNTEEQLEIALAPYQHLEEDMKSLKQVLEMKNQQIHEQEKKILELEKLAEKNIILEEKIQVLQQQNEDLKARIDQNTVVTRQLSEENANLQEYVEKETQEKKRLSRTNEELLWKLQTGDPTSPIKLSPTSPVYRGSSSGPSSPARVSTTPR

effect of a mutation on the interaction | Variant
disrupting interaction strength | S140F
disrupting interaction strength | S644P
with no effect | A264V

Variants of: B5
Conditions: with traf2_human TRAF2, Q12933

effect of a mutation on the interaction | Variant
disrupting interaction strength | P77T
with no effect | M448T
disrupting interaction strength | R221H
with no effect | R159W
disrupting interaction strength | A394S

Variants of: B6
Conditions: with traf2_human TRAF2, Q12933

effect of a mutation on the interaction | Variant
with no effect | Q248E
